The nature of this data set: soluble on expression in E. coli; label from the status in PepcDB or PDB records.
For “MKKVSVLIVAKNEANHIQECIESCRFDKEVIVIDDYSTDNTAEIAEGLGAKVFRRHLNGDFGAQKTFAIEQAGGEWVFLIDADERCTPELSDEISKIVQTGDYAAYFVERRNLFPNHPATHGAMRPDSVCRLMPKKDSSVQGKVHETVQTPYPKRRLKHFMYHYTYDNWEQYFNKFNKYTSISAEKYREQGKPVRFVRDIILRPIWGFFKIYILNKGFLDGKMGWIMSVNHSYYTMIKYVKLYYLYKSGGKF”, the “soluble on expression in E. coli” value is “not soluble”.
As for “MKKIILVAALLSAAVCLPAQNKGGNKSGGINLSLWKKACTQPLDSTQTTYVNLGLFSAMHKLHGVGFNAFGSMVQNNMNGVQISGLANLAGGSMHGVQIGGISNVNGNNLAGLSVSGLVNITGNKAKGVLITGLSNIAGDNMRGLMMSGIMNITGDKAAGVQLAGLANVTGEEYDGLMMSGLLNVVGEEMNGLQLSGLANVTGGQMNGVQLGLFNFASKAKGLQIGLFNYHKEDMKGLQLGLVNANPQTKVQLMVFGGNSTKINVGARFKNKLFYTILGGGTHYLDFDDKFSAALFYRAGLELPLYRNLFVSGDLGYQHIETFRNKKVEGIPARLYALQARLNLEYRFTDKFGLFVTGGYGGSRYYNKARTYDKGVIAEAGVVLFMAGDPLEHHHHHH”, the entry is “not soluble”; as for “MGSDKIHHHHHHMSQFIDILRQHLADFQWRYAHQITPEIQDAIHAMLSCRCNTARVSCCEQQREFPLSCGHRSCPQCQHGTTCDWLSKQQAKLLPVNYFMVTFTLPFELRAIAKSQPDLLYHALFTVAASVLKDFAVRSPKLSGDIGFTGVLHTYSRRRDYHPHLHCIIPAGSYHPGKRQWRKCQTHYLFNAFNLAKVWRARLLTYLSDRLQLKLPH”, “not soluble”.
With “SLFKTKWFAREARSHAITDEELCRAILETEQGKADALGGGVFKKRLHQNRERAIILAKGVSNWFYTFLYAKQDMSNINSQELAGFREIAKHYAFLTKAQLTAMINTKELTEICYDCKN”, the “soluble on expression in E. coli” value is “not soluble”.
As for “MSNTVATMINKRNIMRNYIKIGVAGPVGAGKTALIEKLTREIASKYSVAVITNDIYTQEDAEFLTKNSLLPPERIMGVETGGCPHTAIREDASMNLEAVDEMVTRFPDVEIVFIESGGDNLSATFSPDLADVTIFVIDVAQGEKIPRKGGPGITRSDLLVINKTDLAPFVGADLSVMERDARRMRNGQPFIFTNLMKKENLDGVIGWIEKYALLKNVEEPASLVRLEHHHHHH”, the entry is “soluble”.
The same measure for “MAHHHHHHMTPAGAGEIFLRHNPYRSEVISWYRKFLKASFSVPWETDEDALYVLEEARRLFRKNARINDIETIERKLREAEMRYEIGVHYRIPYPRAFHKTQGSLQESGVAYAADLDSMYDHPVSPRIGWIMEGSVNGGTMGGSEHLTQYLEDGPGVENDNLSEGR”: “not soluble”.
For “MSLKLVEILVLGQVLRLNVPIEQEELLRQAARNLDILVSEMKEKTGLIQLDRVLSIVALNLSFELSQEKNKTAKIEEVLRTGIQQLDHSLENIRVTKEPH”, the “soluble on expression in E. coli” value is listed as “soluble”.
“MTSLEKARELLREFPVVDGHNDLPWALREQVRYDLDARDIAADQSAHLHTDLARLRSGGVGAQYWSVYVRSDLPGAVTATLEQIDCVRRLIDRHPGELRAALTAADMEAARAEGRIASLMGAEGGHSIDNSLATLRALYALGVRYMTLTHNDNNAWADSATDEPGVGGLSAFGREVVREMNREGMLVDLSHVAATTMRDALDTSTAPVIFSHSSSRAVCDHPRNIPDDVLERLSANGGMAMVTFVPKFVLQAAVDWTAEADDNMRAHGFHHLDSSPEAMKVHAAFEERVPRPVATVSTVADHLDHMREVAGVDHLGIGGDYDGTPFTPDGLGDVSGYPNLIAELLDRGWSQSDLAKLTWKNAVRVLDAAEDVSRGLRAARGPSNATIEQLDGTAAEQPEG”: the “soluble on expression in E. coli” value is given as “soluble”.
The same measure for “MSLIIYGYCRVSTKNQTDNNSLYQQQQEILNKYNDAKIIKETYTGTTTNRPKFEKIISSLKKGDLLVATKLDRLARSTSEGIQLIEGLFAKEVSVHILNIGLLENTSMGKFFLTTLLAVAELERNMIIERTQLGKEFAKKKKDFKDGRPKKYSNQQIQYALGLLNSKPYREVVKMTGISKSTLIRAKKSIEGHHHHHH”: “soluble”; for “MPQSESNIALLIDADNAPASKIEAIVSEIAKYGVANIRKAYGNWKSPNLKAWEECLHEYAIRPVQQFDYTKGKNATDAAMIIDAMDLLYTQRLDAFAIVSSDCDFTPLVMRILTNGLKVYGFGEKKTPLPFVYACSTFLYLESIDQIENSEGATQSSTSVKKTGKELKQDAKLISLLRSAISSTIDDDGWSSLAEIGGHIKNQASFDSRNYGYAKLSSLFEAIDLFEIERKNRAIYVRNRQKKSATSKSLEHHHHHH”: “soluble”; for “MGSDKIHHHHHHMPYSLHLPGYSIGDNAYEKIDAIVSTYGSSVAVIGGKTALEKSRPRLEAALAHSGIEVVDWIVYGHNCTYERVDALCGMPTVQQADMIFGVGGGRAVDTVKVVANRLGKPLFAFPTLGSNCAAATNLSVVYKDDDSLAGYDFQRGPCHHVFIDTTVIAQSPAELLWAGIADGMSKECEVKLQSRGRNLSHAPLMGRNVCSAVTPALMDFGLQALEDCRAGRSSQAIEEVALAIIMTCGYVSNMAVDPGQAYYYNSSLAHAFYNSSTAFPECVGKHLHGEIVSYGVLALLQYDGDMETKRRYVEFYKQMGFPLTLADLDLQESDIPELVSHVPATTEWKTGDFDLERFAQAIIDAQVFA”: “not soluble”.
The same measure for “MGSDKIHHHHHHSDKKNTADESEKGVSTVLPDTKNEVAVQILKKRDFHHELVSNGKISARGKADLRFETGEVIAHIYVKNGDRVQKGQKLADLDKFRLEQKLSQSEDALLKAELELKDVLIGQGYSPDDFSKVPAETMKIAKVKSGYEQSKSQYELAKREMEHATLIAPFDGVVANLFSKPYNPANTSEAFCTIIDSKGMEADFTVLENELAFIRMGDKVVITPYAGGDAFEGSVSEINPLVDANGMVKVKALVNAGGKLFSGMNVRVSVRRSLGERLVIPKSAVVLRSGKQVVFTLKDGKAMWNYVNTGLENAIECVVSDKSQKGIEDGLLEGDTVIVTGNLNLAHEAEVYVK”: “not soluble”; for “MITILGPTACGKTRLAVSLAYRLETEIISADSRQIYRGMDIGTGKDLADYQVGGTTIPCHLIDIRPAGDKYNLFAYQHDFHQAYASILARGMDPILCGGTGMYIEAVLKGYHLPDVPPNPTLRDRLQGKSLTELTLILAAYGPLHNKTDVDSAQRAIRAIEIAEYIKNNPVESTEFPPIDSLIIGLDLDRDTRRKRITDRLHARMHEGMIEEVKGLLDSGIPAEDLIYYGLEYKFVTLYLTGQTDYESMFTGLETAIHQFAKRQMTWFRGMERRGFLIHWIDALLPADEQCEAVMKLYGANGLEHHHHHH”: “soluble”; for “MGSDKIHHHHHHVARRKEHTHEQIRHMAISAVVEHLQCHGVDNLSLRKVATTIGYVPSTLINIFGSYQYLLLAVSEQTLLQLAAQLQLIKPTTPTKTIEQMAIVYSQFALANRRCFRLVFELTMTDDQPLPAAHLGLIKSLFSDVEFQLSQYFPSACEQEVEMMSRVLWGGIHGLTCLSLDGKLFETQSCLQDMLTSHVSSYIDGMSIKRNSNAAN”: “not soluble”.
For the sequence “MGGSHHHHHHGMASALKEKKSQETEVTSTLEQQKICLVLESCLKKNSDEEGSQEKGGDDSQQKFIAHVPVPSQQEIEEALVRRKKMELLQKYASETLQAQSEEARRLLGY”, the “soluble on expression in E. coli” value is recorded as “not soluble”.
The same measure for “MGSDKIHHHHHHMKFDYEKEPSRDILCIDCKSFYASVECAERGLDPLKTMLVVMSNAENAGGLVLSASPMAKKVLGVSNVTRKNQVPAHPDLYVVPPRMNLYMKKNQEINNLYKKFVADEDHSVFSVDESFLDVTASLSYFHCETAYKMARIIQRVVYNHVGIYVTVGIGDNPLLAKLALDNGAKHSPDFIAEWRYDRVPDTVWQLPSLTDFCGIGRRMAKRLNRLGIDSVYELAQANPHLLQETFGMMGLQLYAHSWGIDRTFLGKKAPHKAEKSFGNSQILPRDYARRDQIELVLKELTEQVAARLRKAHCQTECITVYVGYSKGQIDREGRTGWRKQQTIPATNNTKVLITYVLALFREHYLAGTDVRQLGLSYGKLVWNESLQLDLFSEPEEQISEMELNYLIDKIRQKFGFQALIHTSSLLEGATAIHRSGLVGGHAGGNVGLGG”: “not soluble”; for “NVYDLANELERAVRALPEYQAVLTAKSAIESDADAQVLWQDFLATQSKVQEMMQSGQMPSQEEQDEMSKLGEKIESNDLLKVYFDQQQRLSVYMSDIEKIVFAPMQDL”: “soluble”.

Source of the values: the DeepSol protein solubility set.
